Measured values published in the supplement of paper PMC11246515.
± gives the standard deviation of the averaged measurements.

Test: total protein half-life in vivo (active degradation + dilution); higher = more stable protein
[1] = E. coli NCM3722 delta-clpP delta-lon delta-hslV, growth: N-lim chemostat, doubling time 6 h
[2] = E. coli NCM3722 delta-clpP, growth: N-lim chemostat, doubling time 6 h
[3] = E. coli NCM3722 delta-hslV, growth: N-lim chemostat, doubling time 6 h
[4] = E. coli NCM3722 delta-lon, growth: N-lim chemostat, doubling time 6 h
[5] = E. coli NCM3722 delta-smpB, growth: N-lim chemostat, doubling time 6 h
[6] = wild type E. coli NCM3722, growth: C-lim chemostat, doubling time 3 h
[7] = wild type E. coli NCM3722, growth: C-lim chemostat, doubling time 6 h
[8] = wild type E. coli NCM3722, growth: C-lim chemostat, doubling time 12 h
[9] = wild type E. coli NCM3722, growth: N-lim chemostat, doubling time 6 h
[10] = wild type E. coli NCM3722, growth: N-lim chemostat, doubling time 12 h
[11] = wild type E. coli NCM3722, growth: P-lim chemostat, doubling time 6 h
[12] = wild type E. coli NCM3722, growth: P-lim chemostat, doubling time 12 h

What does the source list for “MNTARLNQGTPLLLNAVSKHYAENIVLNQLDLHIPAGQFVAVVGRSGGGKSTLLRLLAGLETPTAGDVLAGTTPLAEIQEDTRMMFQDARLLPWKSVIDNVGLGLKGQWRDAARRALAAVGLENRAGEWPAALSGGQKQRVALARALIHRPGLLLLDEPLGALDALTRLEMQDLIVSLWQEHGFTVLLVTHDVSEAVAMADRVLLIEEGKIGLDLTVDIPRPRRLGSVRLAELEAEVLQRVMQRGESETRLRKQG [P0AAI1]”?
total protein half-life in vivo [1]: 5.9 ± 0.12 h; total protein half-life in vivo [2]: 1.1 h

For “MAKQPGLDFQSAKGGLGELKRRLLFVIGALIVFRIGSFIPIPGIDAAVLAKLLEQQRGTIIEMFNMFSGGALSRASIFALGIMPYISASIIIQLLTVVHPTLAEIKKEGESGRRKISQYTRYGTLVLAIFQSIGIATGLPNMPGMQGLVINPGFAFYFTAVVSLVTGTMFLMWLGEQITERGIGNGISIIIFAGIVAGLPPAIAHTIEQARQGDLHFLVLLLVAVLVFAVTFFVVFVERGQRRIVVNYAKRQQGRRVYAAQSTHLPLKVNMAGVIPAIFASSIILFPATIASWFGGGTGWNWLTTISLYLQPGQPLYVLLYASAIIFFCFFYTALVFNPRETADNLKKSGAFVPGIRPGEQTAKYIDKVMTRLTLVGALYITFICLIPEFMRDAMKVPFYFGGTSLLIVVVVIMDFMAQVQTLMMSSQYESALKKANLKGYGR [P0AGA2]”, which “total protein half-life in vivo” value [1] is on record?
Its value is 4.966 ± 0.022 h.

And the “total protein half-life in vivo” value [3]?
The value was 5.77 ± 1 h.

And the “total protein half-life in vivo” value [4]?
The value was 4.51 ± 0.048 h.

What about the “total protein half-life in vivo” value [5] of the same sequence?
The value was 5.24 ± 1 h.

And the “total protein half-life in vivo” value [6]?
Its value is 3.3 ± 0.39 h.

And the “total protein half-life in vivo” value [7]?
Its value is 5.04 ± 0.31 h.

And the “total protein half-life in vivo” value [8]?
The value was 9.27 ± 3 h.

What about the “total protein half-life in vivo” value [9] of the same sequence?
Its value is 4.83 ± 0.52 h.

What about the “total protein half-life in vivo” value [10] of the same sequence?
The value was 8.18 ± 0.17 h.

And the “total protein half-life in vivo” value [11]?
The value was 4.94 ± 0.68 h.

And the “total protein half-life in vivo” value [12]?
Its value is 8.06 ± 0.49 h.

Which results are given for “MKRVSQMTALAMALGLACASSWAAELAKPLTLDQLQQQNGKAIDTRPSAFYNGWPQTLNGPSGHELAALNLSASWLDKMSTEQLNAWIKQHNLKTDAPVALYGNDKDVDAVKTRLQKAGLTHISILSDALSEPSRLQKLPHFEQLVYPQWLHDLQQGKEVTAKPAGDWKVIEAAWGAPKLYLISHIPGADYIDTNEVESEPLWNKVSDEQLKAMLAKHGIRHDTTVILYGRDVYAAARVAQIMLYAGVKDVRLLDGGWQTWSDAGLPVERGTPPKVKAEPDFGVKIPAQPQLMLDMEQARGLLHRQDASLVSIRSWPEFIGTTSGYSYIKPKGEIAGARWGHAGSDSTHMEDFHNPDGTMRSADDITAMWKAWNIKPEQQVSFYCGTGWRASETFMYARAMGWKNVSVYDGGWYEWSSDPKNPVATGERGPDSSK”?
total protein half-life in vivo [1]: 5.98 ± 1.8 h; total protein half-life in vivo [2]: 6.55 ± 1.7 h; total protein half-life in vivo [3]: 6.79 ± 0.81 h; total protein half-life in vivo [4]: 6.48 ± 0.13 h; total protein half-life in vivo [5]: 6.47 ± 0.44 h; total protein half-life in vivo [6]: 3.2 ± 0.56 h; total protein half-life in vivo [7]: 6.183 ± 0.011 h; total protein half-life in vivo [8]: 12.3 ± 0.77 h; total protein half-life in vivo [9]: 6.69 ± 1.1 h; total protein half-life in vivo [10]: 13 ± 1.9 h; total protein half-life in vivo [11]: 6.19 ± 0.064 h; total protein half-life in vivo [12]: 14.4 ± 0.58 h

Which results are given for “MIKVLFFAQVRELVGTDATEVAADFPTVEALRQHMAAQSDRWALALEDGKLLAAVNQTLVSFDHPLTDGDEVAFFPPVTGG”?
total protein half-life in vivo [2]: 4.52 ± 0.36 h; total protein half-life in vivo [3]: 4.61 ± 0.15 h; total protein half-life in vivo [4]: 5.83 ± 0.47 h; total protein half-life in vivo [5]: 4.6 ± 0.21 h; total protein half-life in vivo [6]: 2.96 ± 0.2 h; total protein half-life in vivo [7]: 4.76 ± 0.41 h; total protein half-life in vivo [8]: 9.64 ± 0.42 h; total protein half-life in vivo [9]: 4.25 ± 0.17 h; total protein half-life in vivo [10]: 7.72 ± 0.16 h; total protein half-life in vivo [11]: 5.12 ± 0.3 h; total protein half-life in vivo [12]: 11.7 ± 0.55 h
